Test results reported in the supplement of paper PMC12636428.

Tested on: Saccharomyces cerevisiae
Assay: transcriptional activation domain activity (GFP:mCherry ratio, weighted mean of sorted bins, harmonized to initial dataset scale) (arbitrary fluorescence ratio units); higher = stronger transcriptional activation
Conditions: beta-estradiol 1 µM; induction time 4 h
Summary of the method: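 Barcoded tiles were sequenced after cells were sorted into 8 bins by GFP:mCherry ratio. Before sorting, cultures had been diluted 1:5 into SC with 1 uM beta-estradiol and held for 4 hours at 30 °C. The tiles were fused to an estradiol-inducible synthetic transcription factor and integrated at URA3 in yeast diploids carrying a GFP reporter. Activation activity is the read-weighted mean of bin median fluorescence, averaged over barcodes and linearly mapped onto the initial dataset scale, and tiles under 50 reads were left out.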

Row | Sequence | transcriptional activation domain activity
1 | MAPETKNKKRKSGVTASSPSTKKLKKAEAPVAEEAPAPVKSTKKSKAAAPKAE | 43300
2 | DNAHVLQEYLAVFRHLLSYHDPKLSSHMETIGFMPDLYAIPWFLTLFTHVFPL | 58600
3 | VCLSLYIITCVFGWLLYFITATLSYYYVFDHDYMKHPKFLKNQIRLEINCAAS | 76600
4 | HLQTITINSEGDCGHCLSKYGILVIPTLERVVLVSREGRYPWSSWYLELRVFS | 32100
5 | FRPAPPPCSPAPPSPSSSPSSSSPPPPPPSRARRWSSAARARNAATTPCASSG | 37900
6 | GHGTHCSGTVAGKKYGVAKKANVYAVKVLRSNGSGTMSDVVKGVEYAAEQHSE | < 6570
7 | FGFFSFSSFFFFLVLLYLFSFFFFLDFLSFSFLFPDIHSRIVINHNLVGNFFF | 44600
8 | AAGASTTAQVSKKRQVLLRVNNRTYTRIDCIGRGGSGKVYRVSAESGKMLALK | 62100
9 | MYMSTIRSGHLQPVPSSSKLILFIFLFLFSLISLFFLVGSFPPFFLSYLWILC | 31200
10 | SRIRAKRIYTKLNLFFRSAFLSYTDFKQTIIVLVSLLKLSLNLWDIVKLMCPQ | 47400
11 | LLLPLLLPVLHIFPFLIDFLLPVLDLLLALLVLLPALLDLLLVLLVLLPPLLP | 56100
12 | MALIAFFLLFYLINLLYSLKLFLQYFFFTFTIPYLYIAYAFFFILYSLFLVFS | 42900
13 | MSFLLCGFCITFFFRFFLLSLFWMIRREQGICVSRLMFFFSFFFLSFNIIIFA | 52300
14 | AASAPAASSPSASAPADEAAENGEEAASSSKNKKKKKKGAAGGAAPAAGGKKP | 40700
15 | LFSQLFFPREQAKGVLGWLVWILYMLEKVLFSFSKRRGFFIVCQLEFCVLILT | 40300
16 | DLYNHSYRLHRRKRPGMKEVYLSAMGFRMMGVKGFREWSFLWRVRLAAAPWWA | 52600
17 | FPPPFPPPFPPPFLSSFPPPVPLPLTFPLPPFPFQFPFPFPHPLTFPLPFPFP | 17600
18 | DTMIRLFVGWLEEDPSSDRVLPRVHLGEIGIPVKLDLSSPSAVLVVSRLLCSL | 74100
19 | MYGHVWMGVLHCKLLLVGFLWVLFTLMPDMYIHGREGINSAYTIGHSFTIGFA | 47400

Row | Sequence | transcriptional activation domain activity
20 | MGSGFCNGVFFYYLFFFFISLCVILSSFLLFFFSLPLFLGGLFFSTFLFLDAR | 58900
21 | PAEATVAITNVLYVVQKYYPGSHNLITLLLAIRCVMFTVFRFVAAPLCVTHAL | 46700
22 | STVHNLCELVFLPELFGFCCFSMRFFVFIDLLGTLILPATVVYLLYLIITVAT | 62500
23 | GAAASTPAAPQKPAGGLFGGAGLGAASKPADAAASSSSSGLFGAKPAESAPAA | 30900
24 | VLSRVTGLEHKQMCKIILGLIIDLLLPSGGDTSRILRTVRALLDFLYLAQLPS | 73900
25 | KKSSTSSTAAPKKRTPAKKSTPAPTPSPSASPEPVKPKKTSSKKAAKPVAVAE | 25400
26 | EGADVVVEGNERRKKGESVWEKNLRKGLYGVALDYVLEQASSPIIVLTVLTAL | 60900
27 | LLTFKLHRLFVVSQKMEDEGVRKLILHLTCCLLPKPNRDSMEAICLFLRWVAS | 83200
28 | APTAARVVPSACPSSVTSRATATATMTSPGGGSRSSSRTAAAAAPTGAAVARC | 48400
29 | SATARTTTTTRTATSTTTTAKPSTTTRPSTTTTTTAARRPGTTTTTPARTSVT | 38700
30 | MVIMYKFVFYTGFDRFVFFFWDFFFFFFFFCMLSMGYFSYFIFILSLLESVLV | 26200
31 | RPKVQPFWVIDLFVPYRPLLSFVSDLYFAYQAWTQLTGLTVTLFYFSIWKLAL | 58500
32 | LLNVHVCVIYFVGWIVSLFQFCQIAIQQPTLDWVHCLPYILRVLLGFDLVYVT | 66100
33 | LLLFIHSLIHGTMLLFWRWPMLSILQVPMHPFLLLVCFNLFSQSVPPVLVSAA | 59500
34 | PSASTRSAKSGSKGKGSKTTTVGSGSDTEKESAKMASSRSSKHSSSSRKDKSS | 29200
35 | VLLFLFVWRWGRRAFWQLRGRGIIGSVVELYVNIRRILYGYFLRAPGVRNKVQ | 44100
36 | NWYWLASTMYFLYGESVIYYFKHIVLVDKVLLPLATHHRFISFVLYVIGFVFF | 74800
37 | HKLVVQVLQSQLLILKILDLCVTFHWHSHRERYLGIGYPLNGSASSLSSNAPY | 41400
